The results in this text go back to USRE39192E1, “Supplemented and unsupplemented tissue sealants, methods of their production and use” (American National Red Cross, priority 1990, dated 2006).

The assay has as its target T1, thrombin (Homo sapiens, UniProt P00734).
T1 construct: converts prothrombin into thrombin
Briefly: Stability of HBGF-1β to thrombin in the presence of heparin (Western blot). The format is biochemical. The conditions noted are these: heparin as low as 5U/ml; thrombin 250 U/ml; 37° C. The protocol: FIGS. 1A-1F show Western blots of gels on which samples containing HBGF-1β had been incubated with 250 U/ml thrombin in the presence of increasing concentrations of heparin. Solutions containing HBGF-1β (10 μg/ml), thrombin ([…]), and increasing concentrations of heparin (0, 0.5, 5, 10, 20, and 50 units/ml) were incubated at 37° C. for 72 hours. Aliquots were periodically removed from each of the incubating mixtures and were loaded onto 8% SDS polyacrylamide gels that were prepared and run as described by Laemmli (Nature 227:680 (1970)). The gel was then electroblotted onto nitrocellulose and the band corresponding to HBGF-1β was identified using an affinity-purified polyclonal rabbit antiserum to HBGF-1β.
The concentrations of heparin in the incubating mixtures were: panel A) 0 units/ml; panel B) 0.5 U/ml; Panel C) 5 U/ml; panel D) 10 U/ml; panel E) 20 U/ml; and panel F) 50 U/ml. […]
Similarly, the ability of a selected inhibitor to protect a growth factor from degradation by TS components may be assessed by any method known to those of skill in the art. […]
It was necessary to add an ingredient to the FG that would inhibit or prevent the digestion of HBGF-1β by thrombin (Lobb, Biochem. 27:2572-2578 (1988)), which is a component of FG. […] The stability of HBGF-1 in the presence of increasing concentrations of heparin was assessed. […]
(In general: In western blotting, separated proteins are transferred to a membrane and probed.)

For “HBGF-1: heparin binding growth factor-1, also known as ECGF and FGF-1; recombinant HBGF-1β expressed in E. coli”, the “protection of HBGF-1β from digestion by thrombin” value is listed as “protected from digestion by thrombin”.
